{"source": "patent US11214624", "molecular_target": "microtubule (in vitro reconstituted, taxol-stabilised)", "test": "cell-based or functional assay"}
{"substance": "kinesin (positive control motor protein in the gliding assay)", "values": [{"measurement": "% of gliding microtubules (n = 50), ATP", "value": 89.2, "unit": "%"}, {"measurement": "Maximum gliding speed, ATP", "value": 0.27, "unit": "µm/min"}, {"measurement": "Mean gliding speed, ATP", "value": 0.17, "unit": "µm/min"}]}
